From patent US9885687B2, “Apparatus and method for evaluating characteristics of target molecules” (Dynamic Biosensors GmbH, priority 2010, dated 2018)

Assay: voltage response curve (normalized fluorescence versus static substrate potential) to determine target charge
Assay type: physicochemical
Conditions: protein bound to probe DNA
Description: Note that so far no time dependence has been introduced, since the electric field has been kept stationary. However, with the above equation, it is possible to calculate the fluorescence signal for different values of the applied static potential Φ. The corresponding curve is referred to as “voltage response curve” in the following.
Further note that the model so far only accounted for the free probe molecule, i.e. the double-stranded DNA, but not for any target molecule. As long as the stationary state is concerned, i.e. without a time-dependent electrical field, the target molecule will mainly affect the results due to a possible charge thereof. In fact, based on the above understanding of the stochastic behaviour of the probe molecule, the inventors conjectured that it should be possible to qualitatively and quantitatively determine the charge of the target molecule from the voltage response curve.
The corresponding voltage response curve is shown by filled circles, while the voltage response curve of the free DNA is again shown by open diamonds. It can be seen that the voltage response curve in presence of the avidin also differs noticeably from that of the DNA alone.

| Substance | charge of the target molecule |
| --- | --- |
| streptavidin: negatively charged protein bound to the probe DNA | negatively charged |
| avidin: positively charged protein bound to the probe DNA | positively charged |
